Laboratory results from the Human Domainome abundance scans (Beltran et al. 2025).
± gives the uncertainty stated by the source.

B1: E3 ubiquitin-protein ligase NEDD4-like, residues 539 to 589; numbered along this chain, Q96PU5 (parent)
chain: KTSLNPNDLGPLPPGWEERIHLDGRTFYIDHNSKITQWEDPRLQNPAITGP

Variants of: B1
Assay: abundance fitness (aPCA) (normalised: wild type 0, dead -1); higher = more abundant; growth selection in yeast, the domain comes from the species named
Conditions: Homo sapiens

Variant | abundance fitness
G24M | -1.08 ± 0.18
G24N | -0.639 ± 0.12
G24Y | -0.76 ± 0.18
G24K | -0.53 ± 0.05
G24L | -0.938 ± 0.077
G24F | -1.35 ± 0.22
G24W | -1.07 ± 0.077
G24R | -0.56 ± 0.057
G24S | -0.531 ± 0.052
G24P | -1.14 ± 0.12
G24V | -1.03 ± 0.065
G24E | -0.719 ± 0.072
G24Q | -0.705 ± 0.13
G24I | -1.12 ± 0.24
N32H | -0.286 ± 0.079
N32A | -0.339 ± 0.073
N32L | -0.181 ± 0.06
N32P | -0.594 ± 0.096
N32R | -0.044 ± 0.053
N32E | -0.03 ± 0.047
N32M | -0.164 ± 0.063
N32S | -0.086 ± 0.054
N32T | -0.035 ± 0.084
N32K | -0.011 ± 0.053

Variant | abundance fitness
N32W | -0.395 ± 0.043
N32I | 0.074 ± 0.098
N32Y | -0.24 ± 0.1
N32V | -0.064 ± 0.05
N32Q | -0.18 ± 0.073
N32D | -0.118 ± 0.094
N32C | -0.312 ± 0.066
N32F | -0.39 ± 0.095
Y28D | -0.399 ± 0.058
Y28K | -0.332 ± 0.089
Y28G | -0.451 ± 0.043
Y28P | -0.242 ± 0.065
Y28S | -0.399 ± 0.046
Y28Q | -0.424 ± 0.088
Y28N | -0.851 ± 0.067
Y28F | -0.347 ± 0.11
Y28T | -0.626 ± 0.075
Y28R | -0.536 ± 0.061
Y28L | -0.703 ± 0.066
Y28M | -0.991 ± 0.12
Y28W | -0.008 ± 0.063
Y28C | -0.902 ± 0.13
Y28I | -0.273 ± 0.1
Y28V | -0.696 ± 0.054

Variant | abundance fitness
Y28H | -0.636 ± 0.11
R25F | -0.568 ± 0.044
R25E | -0.198 ± 0.052
R25N | -0.164 ± 0.043
R25S | -0.063 ± 0.04
R25V | -0.54 ± 0.045
R25D | -0.287 ± 0.064
R25Y | -0.569 ± 0.047
R25M | -0.48 ± 0.048
R25P | -0.558 ± 0.049
R25I | -0.757 ± 0.043
R25Q | -0.187 ± 0.063
R25W | -0.72 ± 0.064
R25G | -0.265 ± 0.046
R25H | -0.382 ± 0.047
R25T | -0.068 ± 0.043
R25L | -0.598 ± 0.046
R25A | -0.301 ± 0.047
R25C | -0.393 ± 0.042
T26F | -0.287 ± 0.08
T26H | 0.084 ± 0.079
T26Q | -0.284 ± 0.056
T26W | -0.645 ± 0.065
T26N | -0.187 ± 0.075

Variant | abundance fitness
T26E | -0.403 ± 0.051
T26P | -0.051 ± 0.073
T26L | -0.136 ± 0.05
T26I | -0.131 ± 0.098
T26Y | -0.105 ± 0.094
T26C | -0.065 ± 0.085
T26A | -0.065 ± 0.045
T26M | -0.125 ± 0.065
T26D | -0.635 ± 0.067
T26R | -0.011 ± 0.045
T26V | -0.077 ± 0.046
T26S | -0.113 ± 0.054
T26K | 0.056 ± 0.052
F27P | -0.357 ± 0.058
F27K | -0.002 ± 0.072
F27D | -0.27 ± 0.07
F27T | -0.089 ± 0.065
F27Q | 0.042 ± 0.084
F27V | -0.188 ± 0.045
F27A | -0.112 ± 0.047
F27W | -0.346 ± 0.059
F27S | -0.092 ± 0.051
F27L | -0.039 ± 0.047
F27R | -0.163 ± 0.046

Variant | abundance fitness
F27E | 0.175 ± 0.07
F27I | -0.163 ± 0.098
F27N | -0.201 ± 0.1
F27C | -0.056 ± 0.076
F27G | -0.197 ± 0.047
D30P | -0.953 ± 0.1
D30T | -0.716 ± 0.056
D30L | -0.591 ± 0.053
D30R | -0.553 ± 0.045
D30Y | -0.358 ± 0.087
D30N | 0.166 ± 0.049
D30Q | -0.424 ± 0.075
D30E | -0.24 ± 0.075
D30H | 0.125 ± 0.092
D30A | -0.539 ± 0.053
D30G | -0.617 ± 0.049
D30V | -1.03 ± 0.049
D30S | -0.32 ± 0.053
D30K | -0.369 ± 0.089
D30F | -0.546 ± 0.17
D30M | -0.753 ± 0.091
D30C | -0.166 ± 0.061
D30I | -0.87 ± 0.082
S33N | -0.001 ± 0.075

Variant | abundance fitness
S33D | -0.267 ± 0.077
S33G | -0.344 ± 0.047
S33R | 0.056 ± 0.048
S33Q | -0.188 ± 0.098
S33T | 0.066 ± 0.061
S33M | -0.279 ± 0.11
S33K | 0.05 ± 0.069
S33L | -0.188 ± 0.053
S33A | -0.061 ± 0.047
S33H | 0.098 ± 0.079
S33E | -0.067 ± 0.065
S33I | -0.42 ± 0.061
S33C | -0.153 ± 0.078
H31V | -0.07 ± 0.053
H31E | -0.243 ± 0.042
H31S | -0.08 ± 0.06
H31L | -0.04 ± 0.044
H31K | 0.11 ± 0.072
H31W | -0.428 ± 0.077
H31D | -0.601 ± 0.095
H31Y | -0.414 ± 0.1
H31G | -0.243 ± 0.043
H31M | 0 ± 0.043
H31A | -0.174 ± 0.052

Variant | abundance fitness
H31T | 0.065 ± 0.054
H31I | -0.017 ± 0.075
H31Q | -0.224 ± 0.071
H31R | -0.156 ± 0.052
H31C | -0.149 ± 0.051
H31F | -0.479 ± 0.12
I29A | -0.299 ± 0.065
I29K | -0.027 ± 0.065
I29Q | -0.176 ± 0.051
I29Y | -0.017 ± 0.098
I29S | -0.318 ± 0.056
I29G | -0.482 ± 0.042
I29C | -0.124 ± 0.075
I29T | -0.166 ± 0.059
I29E | -0.105 ± 0.055
I29D | -0.422 ± 0.082
I29M | -0.141 ± 0.075
I29L | -0.175 ± 0.059
I29H | -0.782 ± 0.17
I29N | -0.378 ± 0.11
I29V | 0.013 ± 0.051
I29W | -0.332 ± 0.059
I29R | -0.271 ± 0.046
